This is an account of results in article PMC314469, “Protein Interaction Networks by Proteome Peptide Scanning” (PLoS Biology, 2004).

The chains are these.
T1: Abp1 SH3 (ABP1_YEAST), P15891
T1 chain: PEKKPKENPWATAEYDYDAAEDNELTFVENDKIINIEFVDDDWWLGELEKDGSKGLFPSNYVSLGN

The target of this test is T1, Abp1 SH3 (ABP1_YEAST), P15891. Kind of test: SPOT array.
For HEESNNYVEIPKKP [YHR092C 51-64], the normalised SPOT signal, Boehringer light units (BLU); mean over the file's lines of this peptide stood at 137.

Take GSSELEEPIAIRP [YHR020W 279-291]: the normalised SPOT signal, Boehringer light units (BLU); mean over the file's lines of this peptide is 107.

GPAPPPPPRASRP [YOR181W 384-396] showed a normalised SPOT signal, Boehringer light units (BLU); mean over the file's lines of this peptide of 8770.

For the molecule GISHTRMPTESRP [YKL165C 94-106], the normalised SPOT signal, Boehringer light units (BLU); mean over the file's lines of this peptide stood at 80.

As to GKDIPFFPSSEKP [YDR443C 544-556], the normalised SPOT signal, Boehringer light units (BLU); mean over the file's lines of this peptide was determined as 140.

For the molecule HGLPRNADSQPARP [YIR013C 32-45], the normalised SPOT signal, Boehringer light units (BLU); mean over the file's lines of this peptide came to 154.

In turn, GRLTPGLPRSYKP [YPR111W 45-57] yielded a normalised SPOT signal, Boehringer light units (BLU); mean over the file's lines of this peptide of 866.

GSKSGPPPRPKKP [YNL138W 349-361] registered a normalised SPOT signal, Boehringer light units (BLU); mean over the file's lines of this peptide of 25200.

GYDVKVTPWEKRP [Q0055 610-622] registered a normalised SPOT signal, Boehringer light units (BLU); mean over the file's lines of this peptide of 139.

In the case of GSTAVSFPSSGKP [YLR313C 322-334], the normalised SPOT signal, Boehringer light units (BLU); mean over the file's lines of this peptide was 108.

Molecule HASLLVRDSKPSKP [YBR193C 182-195] came in with a normalised SPOT signal, Boehringer light units (BLU); mean over the file's lines of this peptide of 91.3.

Take HGTLTFPSDYPYKP [YER100W 55-68]: the normalised SPOT signal, Boehringer light units (BLU); mean over the file's lines of this peptide stood at 124.

Regarding GKSRRKTNTKPSRP [YPL137C 17-30], the normalised SPOT signal, Boehringer light units (BLU); mean over the file's lines of this peptide is 65.2.

With GKNKMHEPKNGRP [YOR006C 4-16], the normalised SPOT signal, Boehringer light units (BLU); mean over the file's lines of this peptide amounted to 224.

In turn, GKLVDLTPASMKP [YGR196C 563-575] displayed a normalised SPOT signal, Boehringer light units (BLU); mean over the file's lines of this peptide of 41.6.

GPQKEEAPKKHRP [YMR076C 1094-1106] came in with a normalised SPOT signal, Boehringer light units (BLU); mean over the file's lines of this peptide of 86.6.

On to GTKKIAGVQVPAKP [YPL107W 67-80], for which the normalised SPOT signal, Boehringer light units (BLU); mean over the file's lines of this peptide stood at 106.

On to GNIVEIAPLIPKKP [YDR080W 593-606], for which the normalised SPOT signal, Boehringer light units (BLU); mean over the file's lines of this peptide is 318.

For GEGHSDQPQNPKP [YML118W 352-364], the normalised SPOT signal, Boehringer light units (BLU); mean over the file's lines of this peptide came out at 13.4.

As for GVNLDPSVKIPAKP [YIR007W 25-38], the normalised SPOT signal, Boehringer light units (BLU); mean over the file's lines of this peptide was determined as 112.

GVFMNWSPRFDRP [YLR023C 375-387] gave a normalised SPOT signal, Boehringer light units (BLU); mean over the file's lines of this peptide of 176.

As for GIKTRKFVFNPPKP [YOR065W 294-307], the normalised SPOT signal, Boehringer light units (BLU); mean over the file's lines of this peptide turned out to be 57.2.

In turn, GLQGDQFPRQQRP [YDR240C 296-308] gave a normalised SPOT signal, Boehringer light units (BLU); mean over the file's lines of this peptide of 124.

Consider GMTKTPETSPPKRP [YDR200C 28-41], for which the normalised SPOT signal, Boehringer light units (BLU); mean over the file's lines of this peptide worked out at 169.

Take GSSPQPLPELIKP [YGR270W 682-694]: the normalised SPOT signal, Boehringer light units (BLU); mean over the file's lines of this peptide is 55.9.

On to GKIELTSPITSKP [YEL019C 178-190], for which the normalised SPOT signal, Boehringer light units (BLU); mean over the file's lines of this peptide was 73.6.

In turn, GSVWSKTPPEIKP [YOL100W 451-463] came in with a normalised SPOT signal, Boehringer light units (BLU); mean over the file's lines of this peptide of 87.2.

The molecule GNPLYTTPKTPPRP [YKR028W 953-966] yielded a normalised SPOT signal, Boehringer light units (BLU); mean over the file's lines of this peptide of 292.

The molecule GTFESKHVVIPFKP [YLR238W 83-96] had a normalised SPOT signal, Boehringer light units (BLU); mean over the file's lines of this peptide of 83.5.

As to GRAPRETPEWRRP [YGL034C 16-28], the normalised SPOT signal, Boehringer light units (BLU); mean over the file's lines of this peptide was 2720.

GKSIYFSDIVPSKP [YJL186W 204-217] gave a normalised SPOT signal, Boehringer light units (BLU); mean over the file's lines of this peptide of 108.

GWYLTGAPNILKP [YDL203C 543-555] displayed a normalised SPOT signal, Boehringer light units (BLU); mean over the file's lines of this peptide of 102.

Molecule GNGMYKIPSNTKP [YPL116W 648-660] gave a normalised SPOT signal, Boehringer light units (BLU); mean over the file's lines of this peptide of 499.

Take GYFFHDPKFIPNKP [YGR019W 332-345]: the normalised SPOT signal, Boehringer light units (BLU); mean over the file's lines of this peptide worked out at 174.

Regarding GKDKSRPPRPPPKP [YIL095W 743-756], the normalised SPOT signal, Boehringer light units (BLU); mean over the file's lines of this peptide turned out to be 41900.

As for GVADPQNSLNPSKP [YOR363C 848-861], the normalised SPOT signal, Boehringer light units (BLU); mean over the file's lines of this peptide came to 48.5.

Consider GQLANSSSRAPAKP [YDL222C 69-82], for which the normalised SPOT signal, Boehringer light units (BLU); mean over the file's lines of this peptide came out at 127.

The molecule GTSASHSPRPFRP [YLL029W 25-37] showed a normalised SPOT signal, Boehringer light units (BLU); mean over the file's lines of this peptide of 134.

Take HSYRQLAPTHHRP [YFL015C 82-94]: the normalised SPOT signal, Boehringer light units (BLU); mean over the file's lines of this peptide is 703.

In the case of GVNYVDYYPLPDKP [YGL137W 186-199], the normalised SPOT signal, Boehringer light units (BLU); mean over the file's lines of this peptide was found to be 122.

The molecule GLKYAQSPKFSKP [YKL212W 605-617] returned a normalised SPOT signal, Boehringer light units (BLU); mean over the file's lines of this peptide of 131.

Regarding HADSVADPRSSRP [YOL085C 38-50], the normalised SPOT signal, Boehringer light units (BLU); mean over the file's lines of this peptide was 107.

GIFNALPPPNTKP [YDL046W 25-37] came in with a normalised SPOT signal, Boehringer light units (BLU); mean over the file's lines of this peptide of 136.

The molecule GVRNIMIPFPNRP [YOR093C 1314-1326] registered a normalised SPOT signal, Boehringer light units (BLU); mean over the file's lines of this peptide of 2310.

Molecule GTKSQESPLNKKP [YNL042W 210-222] yielded a normalised SPOT signal, Boehringer light units (BLU); mean over the file's lines of this peptide of 58.6.

Take HDKDVIVPNVWRP [YEL036C 221-233]: the normalised SPOT signal, Boehringer light units (BLU); mean over the file's lines of this peptide was 123.

Take GGIIPTVNGKPVRP [YBR012W-A 198-211]: the normalised SPOT signal, Boehringer light units (BLU); mean over the file's lines of this peptide is 430.

GKLLKSYPTSARP [YGR238C 700-712] displayed a normalised SPOT signal, Boehringer light units (BLU); mean over the file's lines of this peptide of 204.

Turning to GYRKAALKYHPDKP [YNL007C 25-38], the normalised SPOT signal, Boehringer light units (BLU); mean over the file's lines of this peptide came out at 172.

In turn, GVVLRVMVLKPKKP [YNR036C 60-73] yielded a normalised SPOT signal, Boehringer light units (BLU); mean over the file's lines of this peptide of 131.

Turning to GLNDSTEPVLHKP [YIL044C 131-143], the normalised SPOT signal, Boehringer light units (BLU); mean over the file's lines of this peptide turned out to be 135.

For the molecule GINMKKGFINPRKP [YLL021W 560-573], the normalised SPOT signal, Boehringer light units (BLU); mean over the file's lines of this peptide turned out to be 210.

In turn, GGKYQGFGSTPAKP [YDL226C 208-221] displayed a normalised SPOT signal, Boehringer light units (BLU); mean over the file's lines of this peptide of 56.7.

As to GQFSPENPNEFKP [YPR160W 817-829], the normalised SPOT signal, Boehringer light units (BLU); mean over the file's lines of this peptide came to 60.8.
